# Results taken from the supplement of paper PMC12042874.
# ± gives the uncertainty stated by the source.
# Test: amyloid nucleation score (Sup35N fusion, yeast selection) (log enrichment); library NNK1; higher = more nucleation; inactive = no reads after selection
# In short: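 Plasmid inserts were Illumina-sequenced at input and output from psi-negative yeast expressing Sup35N fused to peptides of 20 random codons. The yeast were induced with 100 μM copper sulfate for 24 hours and grown 7 days at 30°C on medium lacking adenine and uracil, and sequences with under 100 input reads were excluded. Nucleation score is the DiMSum log enrichment of output over input reads, centred on the mode score of non-aggregating sequences.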
row,Substance,amyloid nucleation score
1,TRSDQPTILTSLYLERNYSP,-0.321 ± 0.56
2,TRSKMALGVQYHGLMQLYCR,0.121 ± 0.31
3,TRSVWIEDRVTRAARFKGQR,-0.116 ± 0.47
4,TRTGSRHPWRCLSDIASCNG,0.466 ± 0.32
5,TRYLRIWSPSQMICMWGRFL,0.145 ± 0.5
6,TSCPRYECNENTSVYGSLDT,inactive
7,TSEQYESLCWVSSLRRIFQK,0.043 ± 0.48
8,TSFGYLLVSRNWCNSWCIMS,3.01 ± 0.079
9,TSFLWLLTFERFD,inactive
10,TSGSCSACCLWVRGDNETFM,7.881 ± 0.048
11,TSHSETSEAFRRFSAPFLAN,0.497 ± 0.64
12,TSIFDEMSHVEEVRRTMIRG,0.209 ± 0.35
13,TSREGRGSLSVWSG,-0.19 ± 0.81
14,TSSAFVCVENTLWTEVVEPM,0.411 ± 0.55
15,TSSCFMESRLK,0.179 ± 0.59
16,TSTSIGRVQCLYDSWRRTAW,0.73 ± 0.62
17,TSVVVRSPRGVVEPKHYFCI,-1.19 ± 2.4
18,TSYNIMFQ,-0.584 ± 1.2
19,TTEFIGES,1.25 ± 0.73
20,TTHLSHIYLLDASYNYKDSR,0.27 ± 0.36
21,TTLIILDTYLNMIVVGTLYW,0.11 ± 0.22
22,TTPIEAV,-0.178 ± 1.2

row,Substance,amyloid nucleation score
1,TTWRMIFVVKRLHWFGLK,-0.445 ± 0.46
2,TVDKTYFFYIVDCNVDKPGD,1.08 ± 0.59
3,TVLGQH,-0.058 ± 0.29
4,TVLGTSQGSCGWSNPSRNAR,-0.455 ± 1.7
5,TVMVGLKVCAHQLDSM,1.28 ± 0.4
6,TVNGLPN,0.885 ± 0.92
7,TVNSWRNLMSDLSWFSAVIL,-0.657 ± 0.39
8,TVRRVGISWNWYIKTLYGSD,-1.12 ± 0.88
9,TVRSYRSGRCYNFIVNRERA,-0.177 ± 0.75
10,TVSVANSKWSDTVINMRLDR,5.72 ± 0.065
11,TVTYLLCYYDSALYRCATGL,5.553 ± 0.052
12,TVWSHCIEFFGHLRKLRSLL,1.84 ± 0.5
13,TVYIG,0.258 ± 0.3
14,TWIFVSLACKAL,-0.045 ± 0.4
15,TWNRRVRVYTGYCPNVGMSL,4.94 ± 0.059
16,TWYLMMENVS,4.69 ± 0.056
17,TYCNQWIGCMGYRKKHEPR,-0.077 ± 0.41
18,TYDVMTLGENVKGLCISARC,-0.412 ± 0.42
19,TYGKIMVN,-0.418 ± 1.5
20,TYLIKMSVT,0.313 ± 0.39
21,TYLQRCSIFRPSLTSMG,0.273 ± 0.45
22,TYQRRL,-0.414 ± 1.1

row,Substance,amyloid nucleation score
1,TYRLIRSFC,0.368 ± 0.4
2,VAEAFTIGWGGNESSSVRSS,-0.348 ± 0.52
3,VAFWLLC,0.219 ± 0.38
4,VAGAVNNSWWGLSNVARAKR,0.082 ± 0.54
5,VAKAPSNSCTLCHDWYGRST,0.101 ± 1.4
6,VALDIGFSWALSRLWLKRHF,0.095 ± 0.29
7,VALIRGRD,0.292 ± 0.32
8,VAMLQFASFQSSW,-0.323 ± 0.39
9,VANTCWQMMFLRMLSYFLRV,0.687 ± 0.44
10,VARFCNGYTHNIAMCTGIQR,-2.44 ± 2.4
11,VARYSDRSNTEAYRVRFLGI,1.28 ± 0.23
12,VATPISLGFPPWTSNVHAHT,inactive
13,VATPSSCVDSQAKTRMTGTL,-0.112 ± 0.44
14,VAVRTPMSVCSVLLGSGSGL,-0.162 ± 1.1
15,VAVTSSMFFRPNFNLNTVLS,3.69 ± 0.067
16,VCEISLN,0.016 ± 1.2
17,VCFTYNFSPQLVL,0.098 ± 0.38
18,VCINFHYLVGINVIRRNDWV,4.48 ± 0.1
19,VCLRLARWILHQKHTYVYWY,inactive
20,VCNIS,0.985 ± 0.42
21,VCSGTFGYHRRYEWDWVLKG,0.215 ± 1.2
22,VCSQHGGWISGGKGSILARS,-0.417 ± 0.99

row,Substance,amyloid nucleation score
1,VCTCTLVVDSTLCLGSVGTA,2.04 ± 0.18
2,VCVGFIGDVIRLERSANSVL,-0.049 ± 0.3
3,VCVGNAETYMERNYV,0.531 ± 0.4
4,VCVLFELMSKVKGQKARKDQ,0.425 ± 1.1
5,VCYSLSLNISFSFRNVVVRS,0.899 ± 0.58
6,VDDHDPKIGSMLPSIPNGVQ,-0.571 ± 0.42
7,VDFDPNVLFKWTDMKRSRSR,1.66 ± 0.48
8,VDLIPLEGVRGAWLQASQRG,0.664 ± 0.49
9,VDLVGYVVGIFNVYKVVEDT,-0.321 ± 0.23
10,VDRLAEMHTLEWARSVRLSV,0.55 ± 0.92
11,VDSRSWTNLMWSRVAKWLMG,0.155 ± 0.51
12,VDSVLIWIMFAAMGSKCPG,1.77 ± 0.23
13,VDVMRVVLNLNCSRTSVIYM,5.938 ± 0.048
14,VDYSLSENSTVLLNIWDL,-0.008 ± 0.46
15,VECLKV,0.387 ± 0.52
16,VEEGNMRCSNLMTLEHTTHK,-0.582 ± 0.42
17,VEGALGYGCASC,0.768 ± 0.65
18,VEIPHKKWNYVSHLLLSIHG,0.307 ± 0.3
19,VEMGIIFR,-0.339 ± 0.24
